Measurements published in patent US20220177594A1 (ZOETIS SERVICES, published 2022).
Like-named read-outs stand apart in the source and are kept apart here.

Legend:
[1] = target: T1, canine OSMR on canine cells (canine, UniProt A0A8I3MI11 28-967); test: cell-based or functional assay
T1 sequence: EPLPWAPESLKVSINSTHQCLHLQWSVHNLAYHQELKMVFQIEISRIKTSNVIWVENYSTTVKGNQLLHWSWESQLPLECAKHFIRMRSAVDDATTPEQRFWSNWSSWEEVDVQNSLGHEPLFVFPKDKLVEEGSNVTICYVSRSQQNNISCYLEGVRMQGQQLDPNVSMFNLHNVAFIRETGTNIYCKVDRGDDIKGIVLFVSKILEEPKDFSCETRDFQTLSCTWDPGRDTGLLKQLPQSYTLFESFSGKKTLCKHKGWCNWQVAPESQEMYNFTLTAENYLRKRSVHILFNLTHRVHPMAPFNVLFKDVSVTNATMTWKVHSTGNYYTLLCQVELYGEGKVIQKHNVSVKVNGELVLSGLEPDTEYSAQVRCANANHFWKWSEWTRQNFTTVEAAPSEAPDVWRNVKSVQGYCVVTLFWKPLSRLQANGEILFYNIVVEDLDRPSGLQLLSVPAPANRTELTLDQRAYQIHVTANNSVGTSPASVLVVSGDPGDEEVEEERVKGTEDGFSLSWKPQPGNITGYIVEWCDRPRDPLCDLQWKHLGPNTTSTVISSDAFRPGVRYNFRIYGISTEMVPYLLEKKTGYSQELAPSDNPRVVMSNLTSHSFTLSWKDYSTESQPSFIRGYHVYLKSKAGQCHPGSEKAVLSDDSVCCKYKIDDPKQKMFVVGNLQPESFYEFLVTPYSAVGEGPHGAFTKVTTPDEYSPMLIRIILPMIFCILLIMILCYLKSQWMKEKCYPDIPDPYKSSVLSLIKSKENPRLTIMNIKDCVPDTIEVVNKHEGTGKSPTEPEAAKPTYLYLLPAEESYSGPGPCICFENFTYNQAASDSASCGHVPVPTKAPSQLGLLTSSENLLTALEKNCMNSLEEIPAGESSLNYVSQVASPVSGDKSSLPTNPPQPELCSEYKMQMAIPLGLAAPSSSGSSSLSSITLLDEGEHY

[2] = target: T2, feline OSMR on feline Fcwf-4 cells (feline, UniProt A0ABI8A843 28-960); test: cell-based or functional assay
T2 sequence: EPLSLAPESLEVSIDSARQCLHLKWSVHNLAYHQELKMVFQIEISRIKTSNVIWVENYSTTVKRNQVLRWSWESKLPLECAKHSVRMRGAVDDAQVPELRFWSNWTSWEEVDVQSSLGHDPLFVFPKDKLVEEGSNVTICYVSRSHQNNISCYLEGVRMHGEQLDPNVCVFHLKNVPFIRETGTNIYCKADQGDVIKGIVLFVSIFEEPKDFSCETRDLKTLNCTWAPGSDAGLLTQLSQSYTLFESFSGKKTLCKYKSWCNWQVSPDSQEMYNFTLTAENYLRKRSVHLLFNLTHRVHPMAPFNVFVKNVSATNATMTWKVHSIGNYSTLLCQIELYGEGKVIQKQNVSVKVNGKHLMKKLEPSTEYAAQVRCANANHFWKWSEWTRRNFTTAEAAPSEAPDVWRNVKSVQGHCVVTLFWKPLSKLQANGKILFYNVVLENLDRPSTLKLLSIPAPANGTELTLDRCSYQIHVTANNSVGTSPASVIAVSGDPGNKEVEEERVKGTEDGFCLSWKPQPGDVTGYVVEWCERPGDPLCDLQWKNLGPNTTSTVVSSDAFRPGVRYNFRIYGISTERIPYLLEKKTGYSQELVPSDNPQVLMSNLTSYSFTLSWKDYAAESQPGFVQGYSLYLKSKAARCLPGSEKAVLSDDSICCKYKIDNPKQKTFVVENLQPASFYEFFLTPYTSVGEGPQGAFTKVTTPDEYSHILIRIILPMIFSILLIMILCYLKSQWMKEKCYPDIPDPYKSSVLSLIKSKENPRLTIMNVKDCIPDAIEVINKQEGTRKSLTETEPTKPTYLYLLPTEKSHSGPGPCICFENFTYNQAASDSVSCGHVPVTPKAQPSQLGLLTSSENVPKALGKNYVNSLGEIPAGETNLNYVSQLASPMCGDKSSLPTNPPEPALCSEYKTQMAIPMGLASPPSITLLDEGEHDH

[3] = target: T3, Human_OSMR (human, UniProt Q99650 28-739); test: SPR Biacore, OSMR on chip
T3 construct: Bought protein; also called hOSMR
T3 sequence: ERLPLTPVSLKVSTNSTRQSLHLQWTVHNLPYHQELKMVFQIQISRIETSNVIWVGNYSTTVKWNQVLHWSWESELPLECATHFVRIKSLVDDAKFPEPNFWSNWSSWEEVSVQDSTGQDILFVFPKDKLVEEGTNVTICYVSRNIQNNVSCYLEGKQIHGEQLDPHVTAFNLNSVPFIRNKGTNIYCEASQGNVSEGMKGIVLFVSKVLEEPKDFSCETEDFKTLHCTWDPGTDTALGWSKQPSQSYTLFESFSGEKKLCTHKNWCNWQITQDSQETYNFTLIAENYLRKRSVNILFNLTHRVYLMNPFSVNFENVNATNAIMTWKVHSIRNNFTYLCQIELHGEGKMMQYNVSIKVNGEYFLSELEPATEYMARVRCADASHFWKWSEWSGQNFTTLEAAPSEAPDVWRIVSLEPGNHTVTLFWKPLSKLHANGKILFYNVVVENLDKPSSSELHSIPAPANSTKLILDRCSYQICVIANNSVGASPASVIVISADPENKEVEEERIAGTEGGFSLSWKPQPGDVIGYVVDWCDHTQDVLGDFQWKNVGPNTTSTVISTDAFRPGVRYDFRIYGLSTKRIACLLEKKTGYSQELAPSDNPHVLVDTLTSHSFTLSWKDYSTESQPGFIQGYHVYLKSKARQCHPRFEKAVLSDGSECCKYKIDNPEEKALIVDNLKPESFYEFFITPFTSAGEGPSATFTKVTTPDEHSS

[4] = target: T1, canine OSMR on canine cells; test: cell-based or functional assay; remark: listed apart in the source
[5] = target: T2, feline OSMR on feline Fcwf-4 cells; test: cell-based or functional assay; remark: listed apart in the source
[6] = target: T4, ANTIBODY EXPRESSION CONTROL; test: SPR Biacore, expression control
T4 construct: also called mouse anti-canine antibody (capture reagent of the expression control ELISA)
Procedure: (§1) The affinity with which candidate mAbs bind canine, feline, and human (SEQ ID NO: 122; Human_OSMR) (R&D Systems, Minneapolis, Minn.) OSMR was determined using surface plasmon resonance (SPR) on a Biacore system (Biacore Life Sciences (GE Healthcare), Uppsala, Sweden). To avoid affinity differences associated with differential surface preparation that can occur when immobilizing antibodies to surfaces; OSMR from each species was directly conjugated to individual surfaces. Immobilization was obtained by amine coupling 5 μg/mL OSMR using N-hydroxysuccinimide (NHS)/1-Ethyl-3-(3-dimethylaminopropyl) carbodiimide (EDC) chemistry. Chips were quenched with ethanolamine and the affinity with which all candidate mAbs bound to the immobilized OSMR was evaluated. All curves were fit to a 1:1 model. […] Results for affinity measurements are described herein.
Data from an ELISA represents an equilibrium state where the antibody is allowed to associate and dissociate over a one-hour period resulting in steady-state binding. Using Biacore, the target protein is immobilized to a surface and the antibody is passed over this surface in a mobile liquid phase. Protein-protein interaction is determined from changes in the surface resonance which allows for calculation of association (kₐ), disassociation (kd), and affinity constant (KD). While not wishing to be bound to one hypothesis we present data from ELISA and Biacore experiments, using the same preparation of antibody, that may result in agreement between the two methods with respect to binding but also may show contradictory results due to the nature of the binding kinetics and different assay dynamics. The data presented in Table A (in combination with experimental results from yeast display mutational analysis in Example 21) allow for the definition of a structure:function relationship to be defined between the anti-OSMR antibodies described here and their ability to bind and block IL-31 and OSM-mediated signaling through the OSMR receptor.

[7] = target: T3, Human_OSMR; test: SPR Biacore, OSMR on chip; remark: listed apart in the source
Procedure: as §1

Binder	% inh of canine IL-31 pSTAT3 signaling, canine DH82 cells [1]	% inh of feline IL-31 pSTAT3 signaling, feline Fcwf-4 cells [2]	binding result [3]	% inh of canine IL-31 pSTAT3 signaling, canine DH82 cells [4]	% inh of feline IL-31 pSTAT3 signaling, feline Fcwf-4 cells [5]	IC50, inhibition of canine OSM pSTAT3 signaling, canine DH82 cells [1]	IC50, inhibition of canine OSM pSTAT3 signaling, feline Fcwf-4 cells [2]	IC50, inhibition of canine OSM pSTAT3 signaling, canine DH82 cells [4]	IC50, inhibition of canine IL-31 pSTAT3 signaling, canine DH82 cells [1]	IC50, inhibition of feline IL-31 pSTAT3 signaling, feline Fcwf-4 cells [2]	Kd [6]	koff [6]	kon [6]	binding result [7]
Mu_09E09 (antibody, V domains shown, Mouse hybridoma IgG) VH: DVKLVESGEGLVKPGGSLKLSCAASGFTFSSYAMSWVRQTPEKRLEWVAYISSGGDYIYYADTVKGRFTISRDNARNTLYLQMSSLKSEDTAMYYCTRDPITGTFAYWGQGTLVTVSA VL: DLQMTQTTSSLSASLGDRVTISCRASQDINNYLNWYQQKPDGTVKLLIYYTSTLHSGVPSRFSGSGSGTDYSLTISNLEQEDIATYFCQQGNTLPWTFGGGTKLEIK	80 % inh @ 75 µg/ml	63 % inh @ 75 µg/ml	no binding	80 % inh	63 % inh	–	–	–	–	–	–	–	–	–
Mu_10F07 (antibody, V domains shown, Mouse hybridoma IgG) VH: DVKLVESGEGLVKPGGSLKLSCAASGFTFSSYAMSWVRQTPEKRLEWVTYISSGGDYFYYADTVKGRFTISRDNARNTLYLQMSSLKSEDTAMYYCTRDPITGTFAYWGQGTLVTVSA VL: DIQMTQTTSSLSASLGDRVTISCRASQDITNYLNWYQQKPDGTVKLLIYYTSTLHSGVPSRFSGSGSGTDFSLTISNLEQEDIATYFCQQGHMLPWTFGGGTKLEIK	93 % inh @ 75 µg/ml	91 % inh @ 75 µg/ml	no binding	93 % inh	91 % inh	0.05 µg/ml	0.23 µg/ml	0.04 µg/ml	–	–	–	–	–	–
Mu_14C04 (antibody, V domains shown, Mouse hybridoma IgG) VH: EVQLQESGAELVKPGASVKISCKASGYAFSNYWMNWMKQRPGKGLEWIGQIYPGHVNTNYNGNFKDKATLTADKSSSTAYMQLSSLTSEDSAVYFCARSADNSGFVLFAYWGQGTLVTVS VL: DIVLTQSPASLAVSLGQRATISCRASKSVSTSGYSYLHWYQQKPGQPPKLLIFLASNLESGVPARFSGSGSGTDFTLNIHPVEEEDAATYYCQHSRELPLTFGAGTKLELK	–	0 % inh @ 75 µg/ml	no binding	72 % inh	0 % inh	8.64 µg/ml	–	0.73 µg/ml	5.65 µg/ml	–	–	–	–	–
Mu_19F07 (antibody, V domains shown, Mouse hybridoma IgG) VH: EVKLVESEGGLVQPGSSMKLSCTASGFTFSDYYMAWVRQVPEKGLEWVANINYDGSSTYYLDSLKSRFIISRDNAKNILYLQMSSLKSEDTATYYCARGLTWDFDVWGTGTTVTVSS VL: DIVMTQSHKFMSPSVGDRVSITCKASQDVDTAVAWYQQKPGQSPKLLIYLASTRHTGVPDRFTGSGSGTDFTLTISNVQSEDLADYFCQQYSRFPLTFGAGTKLELK	–	–	no binding	87 % inh	90 % inh	0.27 µg/ml	0.68 µg/ml	0.27 µg/ml	0.07 µg/ml	0.42 µg/ml	–	–	–	–

Next, values leading:

% inh of canine IL-31 pSTAT3 signaling, canine DH82 cells [1]	% inh of feline IL-31 pSTAT3 signaling, feline Fcwf-4 cells [2]	binding result [3]	% inh of canine IL-31 pSTAT3 signaling, canine DH82 cells [4]	% inh of feline IL-31 pSTAT3 signaling, feline Fcwf-4 cells [5]	IC50, inhibition of canine OSM pSTAT3 signaling, canine DH82 cells [1]	IC50, inhibition of canine OSM pSTAT3 signaling, feline Fcwf-4 cells [2]	IC50, inhibition of canine OSM pSTAT3 signaling, canine DH82 cells [4]	IC50, inhibition of canine IL-31 pSTAT3 signaling, canine DH82 cells [1]	IC50, inhibition of feline IL-31 pSTAT3 signaling, feline Fcwf-4 cells [2]	Kd [6]	koff [6]	kon [6]	binding result [7]	Binder
0 % inh @ 75 µg/ml	67 % inh @ 75 µg/ml	no binding	0 % inh	67 % inh	> 50 µg/ml	–	> 50 µg/ml	–	–	–	–	–	–	Mu_02D09 (antibody, V domains shown, Mouse hybridoma IgG; also called mouse anti-OSMR 02D09) VH: EVQLVESGGGLVKPGGSLTLSCAASGFTFSDYGMHWLRQAPEKGLEWVAYISSGSRAVFFADTVKGRFTISRDNAKNTLFLQMTSLRSDDTAMYYCARDRYDGRGFAYWGQGTLVTVSA VL: DIVLTQSPATLSVTPGDSVSLSCRASQSISNNLHWYQQTSHESPRLLITYASQSISGIPSRFSGSGSGTDFTLSINSVETEDFGMYFCQQSNSWPLTFGAGTKLELK
–	–	–	–	–	0.26 µg/ml	–	–	0.28 µg/ml	–	0.082 nM	2.29e-05 s⁻¹	281000 M⁻¹ s⁻¹	no binding	mouse: canine 19F07 chimera (antibody, V domains shown, Mouse variable domains on canine IgG constant regions; also called 19F07 (Mouse:Canine); mouse:dog chimera 19F07) VH: EVKLVESEGGLVQPGSSMKLSCTASGFTFSDYYMAWVRQVPEKGLEWVANINYDGSSTYYLDSLKSRFIISRDNAKNILYLQMSSLKSEDTATYYCARGLTWDFDVWGTGTTVTVSS VL: DIVMTQSHKFMSPSVGDRVSITCKASQDVDTAVAWYQQKPGQSPKLLIYLASTRHTGVPDRFTGSGSGTDFTLTISNVQSEDLADYFCQQYSRFPLTFGAGTKLELKR
